The source of these data is PMC4477864.

What is called Kd is the equilibrium constant for the complex coming apart. A higher Kd goes with a looser complex. In general, stoichiometry N refers to the number of molecules, sites or subunits per partner or assembly.

Assay [1] deals with tubulin purified from cow brain (phosphocellulose-purified), assembled as vinblastine-induced curls, (cow) (UniProt Q2T9S0). As to the kind of experiment: co-sedimentation.
Assay [2] has as its target CENP-F N558 (amino acids 1–558) (human). The assay is described as follows: sucrose gradient sedimentation + SEC.
Assay [3] deals with subtilisin-treated Taxol-stabilized MTs (S-MTs) (cow) (UniProt Q2T9S0). As to the kind of experiment: TIRF microscopy of MT-associated GFP fluorescence.
Chain of subtilisin-treated Taxol-stabilized MTs (S-MTs) (cow) (Q2T9S0 whole entry, looked up): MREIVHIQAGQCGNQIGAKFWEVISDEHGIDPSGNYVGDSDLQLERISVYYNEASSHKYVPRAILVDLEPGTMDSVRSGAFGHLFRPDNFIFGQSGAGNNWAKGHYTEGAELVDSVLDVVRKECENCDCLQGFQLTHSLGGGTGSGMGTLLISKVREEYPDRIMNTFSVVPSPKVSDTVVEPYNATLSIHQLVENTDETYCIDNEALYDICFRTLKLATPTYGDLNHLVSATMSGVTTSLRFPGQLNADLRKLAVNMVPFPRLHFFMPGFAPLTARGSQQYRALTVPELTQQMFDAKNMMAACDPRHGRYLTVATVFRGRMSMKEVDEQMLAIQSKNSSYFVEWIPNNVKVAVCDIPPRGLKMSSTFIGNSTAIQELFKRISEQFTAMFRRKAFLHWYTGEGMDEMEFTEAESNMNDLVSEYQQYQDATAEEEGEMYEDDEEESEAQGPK

“CENP-F N558 (amino acids 1–558) (domain or fragment)”: in assay [1], the Kd was determined as 0.016 µM, the fold lower KD than for Tx-MTs is greater than 5 fold and the fold stronger binding than to Tx-MTs is less than 2 fold. The stoichiometry N in assay [2] was found to be 2.

“N436-sfGFP (CENP-F amino acids 1–436 fused to super-folding GFP) (domain or fragment)” yielded a fold reduction of MT-associated GFP fluorescence against untreated MTs in assay [3] of 8 fold.
